According to the supplement of paper PMC9732359:
± gives the uncertainty stated by the source.

Assay: protein stability index of a GFP-peptide fusion (yeast GPS) (PSI 1-4); higher = more stable; sorted into four equal gates, so the index is relative within each strain
Method in brief: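 The protein stability index of a peptide was calculated by multiplying its read frequency in each gate by that gate's number and adding the products. The peptides were tiled 17-residue stretches of yeast proteins, fused downstream of GFP on a Cherry-expressing plasmid and carried in yeast as a pooled library. Mid-log cultures in leucine-free medium were sorted into four equal gates by GFP/Cherry ratio, and each gate's plasmids were PCR-amplified and Illumina-sequenced.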

Row | Sequence | protein stability index (doa10∆) | protein stability index (pdr5∆) | protein stability index (san1∆) | protein stability index (ubr1∆)
1 | PVLNLDKLWTLIPEDKR [RPL28] | 1.54 ± 0.056 | 1.45 ± 0.058 | 2.04 ± 0.071 | 1.17 ± 0.036
2 | NNFRESDIIILKGEIED [SIR4] | 3.05 ± 0.18 | 2.12 ± 0.091 | 2.32 ± 0.13 | 2.93 ± 0.13
3 | RTLNIQPEVAVKAAINF [YIL149C/MLP2] | 2.19 ± 0.054 | 2.15 ± 0.045 | 1.84 ± 0.071 | 2.21 ± 0.046
4 | AALFRLHKFLTKWGLIN [SWI3] | 2.83 ± 0.22 | – | 2.94 ± 0.19 | 2.66 ± 0.23
5 | VEVKDASLVDYVQVRQP [RPS5] | 2.9 ± 0.3 | 3.41 ± 0.17 | – | 1.18 ± 0.067
6 | PPAYALLGSCQTDGMGL [RPC25] | 2.15 ± 0.11 | 2.57 ± 0.15 | 2.22 ± 0.19 | 2.41 ± 0.13
7 | NLIGVITHQGANSESGH [UBP6] | 2.33 ± 0.12 | 3 ± 0.091 | 3.22 ± 0.069 | 3.07 ± 0.085
8 | DVLTLENIQEGTSLTIQ [CDC53] | 3.17 ± 0.1 | 3.22 ± 0.14 | 3.1 ± 0.056 | 3.14 ± 0.054
9 | ESKPFSSDALSKEKANF [SIR4] | 1.96 ± 0.068 | 1.59 ± 0.065 | 1.73 ± 0.089 | 1.39 ± 0.056
10 | DSIGSTRVEGSGGGDSE [RPT6] | 2.6 ± 0.1 | 2.65 ± 0.11 | 3.1 ± 0.065 | 2.97 ± 0.064
11 | TLLKNLRKKLNFKLCQA [YJR042W/NUP85] | 2.01 ± 0.12 | 2.12 ± 0.097 | 1.13 ± 0.23 | –
12 | QIVSYCSNNKNSIKNVP [SSN2] | 1.65 ± 0.083 | 2.14 ± 0.096 | 1.4 ± 0.096 | 1.79 ± 0.083
13 | LNRFNFQNTNTRSALKL [QCR2] | 2.71 ± 0.076 | 2.91 ± 0.069 | 2.83 ± 0.075 | 2.62 ± 0.074
14 | FQYVIDESSGTSRIDEE [SMC4] | 2.93 ± 0.082 | 2.86 ± 0.09 | 2.05 ± 0.15 | 3.23 ± 0.13
15 | YLNGTLIGSIRFPTKFV [RET1] | 2.04 ± 0.075 | 1.6 ± 0.053 | 1.64 ± 0.088 | 1.56 ± 0.044
16 | YLMTYPQQPMVKTKTIE [RET1] | 1.81 ± 0.099 | 1.69 ± 0.15 | 1.61 ± 0.24 | 1.08 ± 0.065
17 | DKITLHDEKTLAPSKHQ [SIR4] | – | 2.68 ± 0.16 | 2.44 ± 0.2 | 2.92 ± 0.19
18 | VLESIVARTFWASKYGQ [BRR2] | 2.74 ± 0.063 | 2.37 ± 0.062 | 2.47 ± 0.096 | 2.61 ± 0.067
19 | DCMIAHGAASFLKERLM [RPB2] | 3.03 ± 0.088 | 2.54 ± 0.068 | 2.13 ± 0.1 | 2.09 ± 0.066
20 | KQNNKDFRTRYIDIRTN [MTW1] | 2.69 ± 0.07 | 2.65 ± 0.072 | 2.31 ± 0.1 | 2.62 ± 0.077
21 | FEEWIKMATDNKINSRN [BRN1] | 3.27 ± 0.13 | 3.17 ± 0.096 | 3.27 ± 0.11 | 3.7 ± 0.14
22 | SFDSIDHSWFLLIGCKL [CSI1] | 1.71 ± 0.1 | 1.77 ± 0.058 | 1.72 ± 0.2 | 2.58 ± 0.05
23 | NEENDLDVDPAKRIRVS [RPB2] | 3.01 ± 0.07 | 3 ± 0.07 | 3.11 ± 0.12 | 3.02 ± 0.047
24 | MIFETIVDGKLKTEKIF [FAS1] | 1.8 ± 0.07 | 2.21 ± 0.12 | 1.89 ± 0.1 | 2.17 ± 0.08
25 | DLSVTPQKSSSKGFVFN [YAR002W/NUP60] | 2.74 ± 0.089 | 3.06 ± 0.12 | 2.88 ± 0.057 | 3.06 ± 0.12
26 | RGHVLQFEWHQNSLLTN [SNF2] | 1.93 ± 0.055 | 2.3 ± 0.064 | 3.11 ± 0.056 | 2.6 ± 0.048

Row | Sequence | protein stability index (doa10∆) | protein stability index (pdr5∆) | protein stability index (san1∆) | protein stability index (ubr1∆)
27 | ELSDKEIYTVEDRPPEY [ISW2] | 3.34 ± 0.13 | 3.45 ± 0.15 | 3.33 ± 0.17 | 3.42 ± 0.12
28 | FKQKLNELLKCKDDVQL [MTW1] | 2.93 ± 0.054 | 2.96 ± 0.049 | 2.87 ± 0.036 | 3 ± 0.039
29 | SAKPSQIPTVSSPLGFE [SIR4] | 3.14 ± 0.064 | 2.98 ± 0.058 | 2.85 ± 0.068 | 3.03 ± 0.047
30 | DIWQSRDQGNDSLNDDL [YIL149C/MLP2] | 3.53 ± 0.28 | – | 3.65 ± 0.17 | 3.76 ± 0.14
31 | LSTTPTKSNRRVSHSDT [SIR4] | – | 3.06 ± 0.26 | 3.33 ± 0.088 | 3.25 ± 0.2
32 | SDESIERLMTWKFKSLI [RRI2] | 2.26 ± 0.048 | 2.36 ± 0.042 | 2.11 ± 0.066 | 2.31 ± 0.031
33 | RQPANTKIGAKRIHSVR [RPS8A] | 3.08 ± 0.076 | 3.26 ± 0.075 | 2.74 ± 0.07 | 3.04 ± 0.076
34 | TRLVQLREFRITHNTNI [GRR1] | 1.23 ± 0.11 | 1.16 ± 0.06 | 1.04 ± 0.26 | 1.38 ± 0.09
35 | SEPLTLKVLSEHLDCMN [PCI8] | 1.91 ± 0.064 | 2.29 ± 0.065 | 2.73 ± 0.055 | 1.93 ± 0.058
36 | YRTPGSSGVLSSNIAGT [SSN2] | 3.35 ± 0.12 | 3.29 ± 0.1 | 3.03 ± 0.14 | 3.38 ± 0.088
37 | EDGTSASFQIVEEDHTL [RPC19] | 3.02 ± 0.16 | 3.69 ± 0.17 | 3.4 ± 0.12 | 3.25 ± 0.13
38 | LNLTGPKVPEDIYKSHL [RPN1] | 2.9 ± 0.15 | 3.11 ± 0.11 | 2.85 ± 0.1 | 2.9 ± 0.26
39 | TDRITRLFIKPGQKMSL [BRN1] | 3.22 ± 0.11 | 2.9 ± 0.11 | 2.97 ± 0.14 | 3.17 ± 0.1
40 | NGGNNTQQPGTNSHYNN [SNF2] | 3.05 ± 0.058 | 3.16 ± 0.063 | 3.04 ± 0.054 | 3.05 ± 0.047
41 | FQYGSRLPTFLKHKSIC [RPP1] | 2.24 ± 0.081 | 1.91 ± 0.055 | 1.68 ± 0.084 | 1.87 ± 0.063
42 | NRLSNPQKNLLLKGPAS [YOR098C/NUP1] | 2.96 ± 0.049 | 3.05 ± 0.038 | 2.68 ± 0.054 | 2.94 ± 0.056
43 | ISSEKLLTLTNAANVPV [RPP1A] | 2.95 ± 0.091 | 2.9 ± 0.1 | 2.93 ± 0.065 | 3 ± 0.082
44 | ELALIEEAYDNPHDTLN [PRP8] | 3.32 ± 0.088 | 3.3 ± 0.077 | 3.51 ± 0.076 | 3.41 ± 0.07
45 | NFNASLQLTTNTEQGDS [SNM1] | 2.02 ± 0.039 | 2.3 ± 0.064 | 2.49 ± 0.055 | 1.85 ± 0.071
46 | RAKALGIKVTNPKGRLA [RPL32] | 3.62 ± 0.3 | 3.33 ± 0.18 | 2.87 ± 0.23 | 3.39 ± 0.27
47 | ASKGIDRLSLQDRQQLL [ECM29] | 3.08 ± 0.083 | 3.11 ± 0.07 | 3.19 ± 0.085 | 3.21 ± 0.056
48 | LQFKSIREIDVAGGKKA [RPS7A] | 1.45 ± 0.14 | 1.49 ± 0.11 | – | 1.21 ± 0.077
49 | HDIAYSKDGLPNKVKTE [RRP6] | 2.74 ± 0.14 | 2.51 ± 0.23 | 2.85 ± 0.18 | 3.2 ± 0.29
50 | FDKNTKTTPNTASSEAS [YMR153W/NUP53] | 2.99 ± 0.051 | 2.98 ± 0.053 | 2.9 ± 0.036 | 2.8 ± 0.043
51 | KKISSFKSLIDEDLLDT [YGL172W/NUP49] | 3.08 ± 0.097 | 3.21 ± 0.079 | 3.12 ± 0.062 | 3.14 ± 0.063
52 | PLLARKQFVVDVLHPNR [RPS24A] | 1.58 ± 0.14 | 1.83 ± 0.072 | 1.72 ± 0.12 | 1.62 ± 0.071
